Data taken from patent US20230120736A1, “ANTI-CD98 ANTIBODIES AND ANTIBODY DRUG CONJUGATES” (AbbVie Inc., priority 2016, published 2023).

How the values were obtained:
[1] = tested on: A549 human lung carcinoma xenograft; assay: A549 FP3 xenograft tumor growth inhibition, with or without docetaxel; type: in vivo, mouse; conditions: QDx1, Ab095 8 IP, docetaxel 7.5 IV, ADC 10 mg/kg/day IP
Procedure: (§1) The cell lines A549 and NCI-H460 were obtained from the American Type Culture Collection (ATCC, Manassas, Va.). A549 cell line was further passaged in mice as flank xenograft to improve xenograft tumor growth, resulting in the A549-FP3 line. Cells were cultured as monolayers in RPMI-1640 culture media (Invitrogen, Carlsbad, Calif.) supplemented with 10% Fetal Bovine Serum (FBS, Hyclone, Logan, Utah). To generate xenografts, 5×10^6 (A549 and NCI-H460) viable cells were inoculated subcutaneously into the right flank of immune deficient female SCID-bg mice (Charles River Laboratories, Wilmington, Mass.). The injection volume was 0.2 ml and composed of 1:1 S-MEM:Matrigel Matrigel (BD, Franklin Lakes, N.J.). Tumors were size matched at approximately 223 mm^3. […] Measurements of the length (L) and width (W) of the tumor were taken via electronic caliper and the volume was calculated according to the following equation: V=L×W^2/2. […]
(§2) To refer to efficacy of therapeutic agents, parameters of amplitude (TGI.), durability (TGD) are used. […] Tumor growth inhibition is calculated by 100*(1−Tv/Cv) where Tv and Cv are the mean tumor volumes of the treated and control groups, respectively. […] TGD is calculated by 100*(Tt/Ct−1) where Tt and Ct are the median time periods to reach 1 cm^3 of the treated and control groups, respectively.

[2] = tested on: NCI-H460 human lung carcinoma xenograft; assay: NCI-H460 xenograft tumor growth inhibition, with or without docetaxel; type: in vivo, mouse; conditions: QDx1, Ab095 8 IP, docetaxel 7.5 IV, ADC 10 mg/kg/day IP
Procedure: as §1, §2

[3] = tested on: NCI-H146 (human small cell lung cancer) xenograft; assay: NCI-H146 xenograft tumor growth inhibition; type: in vivo, mouse; conditions: SCID-bg mice
Procedure: The in vivo efficacy of anti-CD98 hybridoma mAb conjugates were tested using Ab3-CZ and Ab5-CZ as examples in NCI-H146 (human small cell lung cancer) xenograft model. […] The cells were cultured as monolayers in RPMI-1640 culture media (Invitrogen, Carlsbad, Calif.) that was supplemented with 10% Fetal Bovine Serum (FBS, Hyclone, Logan, Utah). To generate xenografts, 5×10^6 (NCI-H146) viable cells were inoculated subcutaneously into the right flank of immune deficient female SCID-bg mice (Charles River Laboratories, Wilmington, Mass.). The injection volume was 0.2 mL and composed of Matrigel (BD, Franklin Lakes, N.J.). Tumors were size matched at approximately 212 mm^3. Antibodies and conjugates were formulated in phosphate buffered saline, pH 7.2 and injected intraperitoneally. […] Therapy began within 24 hours after size matching of the tumors. Mice weighed approximately 21 g at the onset of therapy. Tumor volume was estimated two to three times weekly. Measurements of the length (L) and width (W) of the tumor were taken via electronic caliper and the volume was calculated according to the following equation: V=L×W^2/2. Mice were euthanized when tumor volume reached 3,000 mm^3 or skin ulcerations occurred. Eight mice were housed per cage. Food and water were available ad libitum. Mice were acclimated to the animal facilities for a period of at least one week prior to commencement of experiments. Animals were tested in the light phase of a 12-hour light: 12-hour dark schedule (lights on at 06:00 hours). Anti-CD98 conjugates (10 mg/kg) were administered as a single dose (QDx1) intraperitoneally. A human IgG control antibody (MSL109, a humanized IgG1 antibody that binds to cytomegalovirus (CMV) glycoprotein H) was used as a negative control agent.
To refer to efficacy of therapeutic agents, parameters of amplitude (TGImax), durability (TGD) and response frequency (CR, PR, OR) of therapeutic response are used. The efficacy of inhibition of NCI-H146 xenografts growth with CD98-targeted ADCs is illustrated by Table 6, below. In the tables, to refer to efficacy, parameters of amplitude (TGImax) and durability (TGD) of therapeutic response are used. TGImax is the maximum tumor growth inhibition during the experiment. Tumor growth inhibition is calculated by 100*(1−Tv/Cv) where Tv and Cv are the mean tumor volumes of the treated and control groups, respectively. TGD or tumor growth delay is the extended time of a treated tumor needed to reach a volume of 1 cm^3 relative to the control group. TGD is calculated by 100*(Tt/Ct−1) where Tt and Ct are the median time periods to reach 1 cm^3 of the treated and control groups, respectively. Distribution of the response amplitude in a specific group is given by the frequency of complete responders (CR), partial responders (PR), and overall responders (OR). CR is the percentage of mice within a group with a tumor burden of 25 mm^3 for at least three measurements. PR is the percentage of mice within a group with a tumor burden larger than 25 mm^3 but less than one-half of the volume at onset of treatment for at least three measurements. OR is the sum of CR and PR.
The in vivo anti-tumor efficacy of selected humanized anti-CD98 mAb conjugates were tested in NCI-H146 (human small cell lung cancer) xenograft model, as described in Example 6. Tumor growth inhibition was reported as TGImax in Table 28.

[4] = Size exclusion chromatography, % aggregate fraction of ADC; type: physicochemical; conditions: hybridoma mAb conjugated with synthon CZ, Method A
Procedure: Size exclusion chromatography was performed using a Shodex KW802.5 column in 0.2M potassium phosphate pH 6.2 with 0.25 mM potassium chloride and 15% IPA at a flow rate of 0.75 ml/min. The peak area absorbance at 280 nm was determined for each of the high molecular weight and monomeric eluents by integration of the area under the curve. The % aggregate fraction of the conjugate sample was determined by dividing the peak area absorbance at 280 nm for the high molecular weight eluent by the sum of the peak area absorbances at […] of the high molecular weight and monomeric eluents multiplied by 100%.

[5] = tested on: HCC38 breast cancer cell line; assay: Growth inhibition assay (CellTiter-Glo); conditions: read-out: ADC potency, IC50, HCC38, 4-days treatment, 3000 cells per well
[6] = tested on: Jurkat acute T cell leukemia cell line; assay: Growth inhibition assay (CellTiter-Glo); conditions: read-out: ADC potency, IC50, Jurkat, 5-days treatment, 3000 cells per well

Row | Molecule | % Aggregates by SEC [4] | IC50 [5] | IC50 [6] | other results
1 | CC(=O)O[C@@]12CO[C@@H]1C[C@H](O)[C@@]1(C)C(=O)[C@H](O)C3=C(C)[C@@H](OC(=O)[C@H](O)[C@@H](NC(=O)OC(C)(C)C)c4ccccc4)C[C@@](O)([C@@H](OC(=O)c4ccccc4)[C@H]21)C3(C)C [Docetaxel, docetaxel, reference compound] |  |  |  | TGD [1]: 80%; TGImax [1]: 62%; TGD [2]: 30%; TGImax [2]: 35%
2 | MSL109: "a humanized IgG1 antibody that binds to cytomegalovirus (CMV) glycoprotein H", "negative control agent" [reference compound] |  |  |  | Growth Inhibition TGD ([3]; 10 mg/kg IP QDx1): 0%; Growth Inhibition TGImax ([3]; 10 mg/kg IP QDx1): 0%; Response Frequency CR ([3]; 10 mg/kg IP QDx1): 0%; Response Frequency PR ([3]; 10 mg/kg IP QDx1): 0%; Response Frequency OR ([3]; 10 mg/kg IP QDx1, sum of CR and PR): 0%
3 | Ab13-CZ (conjugate) VH: QVQLKESGPGLVQPSQTLSLTCTVSGFSLSSYGVIWVRQPPGKGLEWMGIIWANGNTNYNSALKSRLSISRDTSKSQVYLKMNSLQTEDTATYYCARHYYDGTHYYGYFDYWGQGVMVTVSS VL: DTVMTQTPSSQAVSAGEKVTMSCKSSQSLLYSENKKKYLAWYQQKPGQSPKLLIYWASTRESGVPDRFIGSGSGTDFTLTISSVQAEDLAVYYCQQYYNFPYTFGAGTKLELK | 4.7% | 0.787 nM | 0.149 nM | 
4 | Ab10-CZ (conjugate) VH: EVQLVESGGGLVQPGRSLKLSCAASGFTFSDYAMAWVRQAPKKSLEWVATIIYDGRGTYCRDSVKGRFTISRDNAKSTLYLQMDSLRSEDTATYYCARQGDGTYHYWGYFDYWGQGVMVTVSS VL: DIVMTQSPSSLAVSAGETVTINCKSSQSLLSSGNQKNYLAWYQQKPGQSPKLLIYWASTRQSGVPDRFIGSGSGTDFTLTISSVQAEDLAIYYCQQYYDTPYTFGAGTKVDLK | 4.7% | 1.16 nM | 0.148 nM | 
5 | Ab12-CZ (conjugate) VH: EVQLVESGGGLVQPGRSLKLSCAASGFTFSDYAMAWVRQAPKKGLEWVASIIYDGRGTYYRDSVKGRFTISRDNAKSTLYLQMDSLRSEDTATYYCARQGDGTYYYWGSFDYWGQGVMVTVSS VL: DIVMTQSPSSLAVSAGETVTINCKSSQSLLSSGNQKNYLAWYQQKPGQSPKLLIYWASTRQSGVPDRFIGSGSGTDFTLTISSVQAEDLAIYHCQQYYDTPYTFGAGTKLELK | 2.9% | 0.685 nM | 0.094 nM | 
6 | Ab11-CZ (conjugate) VH: EVQLVESGGGLVQPGRSLKLSCAASGFTFSDYAMAWVRQAPKKGLEWVAGIIYDGRGTYYRDSVKGRFTISRDNAKSTLYLQMDSLRSEDTATYYCARQGDGTYYYWGYFDYWGQGVMVTVSS VL: DIVMTQSPSSLAVSAGETVTINCRSSQSLLSSGNQKNYLAWYQQKPGQSPKLLIYWASTRQSGVPDRFIGSGSGTDFTLTISSVQAEDLAIYYCQQYYDTPYTFGAGTKLELK | 4.2% | 1.14 nM | 0.311 nM | 
7 | Ab15-CZ (conjugate) VH: EVQLVESGGGLVQPGRSLKLSCAASGFTFSDYTMAWVRQAPKKGLEWVATIIYDGRGTYYRDSVKGRFTISRDNAKSTLYLQMDSLRSEDTATYYCARQSDGTYYYWGYFDYWGQGVMVTVSS VL: DIVMTQSPSSLAVSAGETVTINCKSSQSLLFSGNQKNYLAWYQQKPGQSPKLLIYWASTRQSGVPDRFIGSGSGTDFTLTIRSVQAEDLAIYYCQQYYDSPYTFGAGTKLELK | 5.7% | 1.06 nM | 0.076 nM | 
8 | Ab14-CZ (conjugate) VH: EVKLQQSGDELVRPGASVKISCKASGYTFTSYSMHWVKERPGQGLEWIGAIFPIIGTTEYNQKFKGKATLTADKSSNTANMELSRLTSEDSAVYYCARVYLSYFDYWGQGVMVTVSS VL: DIQMTQSPSFLSASVGDRVTINCKASQNINKYLDWYQRKHGEAPKLLIYNTNNLQTGIPSRFSGSGSGTDYTLTISSLQPEDVATYFCLQHSSRYTFGAGTKLELK | 8.8% | 0.798 nM | 0.063 nM | 
